Results as given in patent US20160122431A1 (MAYO FOUNDATION FOR MEDICAL EDUCATION AND RESEARCH, published 2016).

What was measured:
human B7-DC = biological target: T1, human B7-DC (human, UniProt Q9BQ51 20-273); experiment: flow cytometry on Ltk cells transiently transfected with human B7-DC
T1 construct: whole, on cells; also called hB7.DC; human B7-DC orthologue
T1 sequence (looked up): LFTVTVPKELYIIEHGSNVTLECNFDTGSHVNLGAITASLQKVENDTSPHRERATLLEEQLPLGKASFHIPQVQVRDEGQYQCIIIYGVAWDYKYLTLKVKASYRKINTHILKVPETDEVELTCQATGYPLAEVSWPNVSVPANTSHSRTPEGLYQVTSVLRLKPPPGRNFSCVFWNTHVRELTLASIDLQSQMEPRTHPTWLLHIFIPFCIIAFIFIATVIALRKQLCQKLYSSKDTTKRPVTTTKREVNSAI
Source text: Furthermore, the level of sHIgM12 binding to L-cells was positively correlated with the amount of B7-DC plasmid used in the transfection.

murine B7-DC = biological target: T2, murine B7-DC (murine, UniProt Q9WUL5 20-247); experiment: cell-based or functional assay
T2 sequence (looked up): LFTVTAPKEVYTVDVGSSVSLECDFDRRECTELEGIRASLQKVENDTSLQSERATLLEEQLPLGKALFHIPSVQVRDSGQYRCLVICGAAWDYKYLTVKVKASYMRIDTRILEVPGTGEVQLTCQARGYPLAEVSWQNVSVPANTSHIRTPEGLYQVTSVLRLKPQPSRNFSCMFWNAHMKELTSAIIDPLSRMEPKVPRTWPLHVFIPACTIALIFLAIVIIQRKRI

B1: sHIgM12 (human monoclonal IgM antibody, pentameric) (antibody)
heavy: QVQLQESGPGLLKPSETLSLTCTVSGGSVSLYYWSWIRQSPGKEPEWIGYIYSSGSTDYNPSLRSRVTISLDTSNNRFSLNLRSVTAADTAVYWCARSASIRGWFDPWGQGTLVTVSSGSASAPTLFPLVSCENSPSDTSSVAVGCLAQDFLPDSITFSWKYKNNSDISSTRGFPSVLRGGKYAATSQVLLPSKDVMQGTDEHVVCKVQHPNGNKEKNVPLPVIAELPPKVSVFVPPRDGFFGNPRKSKLICQATGFSPRQIQVSWLREGKQVGSGVTTDQVQAEAKESGPTTYKVTSTLTIKESDWLSQSMFTCRVDHRGLTFQQNASSMCVPDQDTAIRVFAIPPSFASIFLTKSTKLTCLVTDLTTYDSVTISWTRQNGEAVKTHTNISESHPNATFSAVGEASICEDDWNSGERFTCTVTHTDLPSPLKQTISRPKGVALHRPDVYLLPPAREQLNLRESATITCLVTGFSPADVFVQWMQRGQPLSPEKYVTSAPMPEPQAPGRYFAHSILTVSEEEWNTGETYTCVVAHEALPNRVTERTVDKSTGKPTLYNVSLVMSDTAGTCY
light: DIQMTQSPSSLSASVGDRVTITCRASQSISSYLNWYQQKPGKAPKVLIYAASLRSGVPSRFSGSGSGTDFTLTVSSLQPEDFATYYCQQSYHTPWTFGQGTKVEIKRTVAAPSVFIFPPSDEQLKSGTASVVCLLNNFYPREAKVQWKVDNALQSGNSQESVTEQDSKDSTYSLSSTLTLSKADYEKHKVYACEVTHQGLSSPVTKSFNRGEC
notes: IgM/kappa purified from human patient serum; A J chain is not mentioned; also called B7-DC cross-linking antibody; sHIgM12 antibody
binding result (human B7-DC): binds
GFP+, CD11c+ DC recovered from draining lymph nodes after adoptive transfer (murine B7-DC): 5 fold
IL-12 p70 release by DC (ELISA), against LPS (murine B7-DC): ~3 fold
ability of lymph node DC to induce an antigen-specific T cell response (murine B7-DC): 10 fold
